From US20240239875A1 (published 2024) come the findings set out here.

The term EC50 denotes the concentration at which the effect is half-maximal. High values mean a need for much substance, low ones an effect from little substance.

Assay in all cases: ELISA
(In general: An ELISA detects its analyte on a solid surface through an enzyme-linked reagent.)

Test [1] has as its target T1, SARS-CoV-2 prefusion stabilized trimer protein (WIV02 isolate spike protein) (UniProt P0DTC2 14-1213).
In test [2] the target is T1, SARS-CoV-2 prefusion stabilized trimer …. This is another data set of the same source.
Test [3] deals with SARS-CoV-2 receptor binding domain (UniProt P0DTC2 319-541).

Like-named read-outs stand apart in the source and are kept apart here.

B1: 4-A15-A (antibody, V domains shown)
VH: QVQLQQSGAELVKPGASVKISCKASGNAFSSYWMNWVKQRPGKGLEWIGQIYPGDGDTNFNGRFKGKATLTADISSTTAYMLLSSLTSEDSAVYFCASGGYGSSYERDFDYWGQGTTLTVSS
VL: DIQMNQSPSSLSASLGDTITITCHASQNINVWLSWYQQKPGNIPKLLIYKASNLHTGVPSRFSGSGSGTGFTLTISSLQPEDIATYYCQQGHSYPLTFGGGTKLEIK
On to B1, for which the EC50 in test [1] stood at 0.33 nM; in test [2], 0.34 nM.

B2: 4-L4-A (antibody, V domains shown)
VH: QAYLQQSGAELVRPGASVKMSCKASGYTFTSYTVHWVKQTPRQGLEWIGGIYPGNVDTSYNQNFKGKATLTVDKSSSTAYMQLSSLTSEDSAVYFCARDGYYAMDYWGQGTSVTVSS
VL: not shown
B2: the 50% effective concentration (EC50) in test [1] stood at 0.37 nM; in test [3] it was 0.22 nM.

B3: 4-M3-A (antibody, V domains shown)
VH: EVQLQQSGPELVKPGDSVKISCKASGYSFTGYFMNWVMQSHGKSLEWIGRINPNNGETFYNQKFKGKATLTVDKSSDTAHMELRSLTSEDSAVYYCARGGTGTGWGQGTTLTVSS
VL: DILMTQSPSSMSVSLGDTVSITCHASQGISSNIGWLQQKPGKSFKGLIYYGTNLEDGVPSRFSGSGSGADYSLTISSLESEDLADYYCIQYAQFPYTFGGGTKLEIK
As for B3, the 50% effective concentration (EC50) in test [1] turned out to be 1.94 nM; in test [3] it was 0.26 nM.

B4: 9-K4-A (antibody, V domains shown)
VH: QAYLQQSGAELVRPGASVKMSCKASGYTFPNYSFHWVKQTPRQGLEWIGAIYPGNDDTSYNQRFKGKATLTVDKSSSTAYMQLSSLTSEDSAVYFCARDYSNYPFDCWGQGTTLTVSS
VL: DIVLTQSPASLAVSLGQRATISCRASKSVSTSGYSYMHWYQQKPGQPPKLLIYLASNLESGVPARFSGSGSGTDFTLNIHPVEEEDAATYYCQHSRELPPTFGGGTKLEIK
Turning to B4, the half-maximal effective concentration (EC50) in test [1] was found to be 1.13 nM; in test [3], 0.73 nM.

B5: 10-L12-A (antibody, V domains shown)
VH: QAYLQQSGAELVRPGASVKMSCKASGYTFTSYSMHWVKQTPRQGLEWIGAIYPGNGDTSYNQKFKGKATLTVDKSSSTAYMQLSSLTSEDSAVYFCTRDYSNYPFDYWGQGTTLTVSS
VL: DIVLTQSPASLAVSLGQRATISCRASKSVSTSGYSYLHWYQQKPGQPPKLLIYLASNLESGVPARFSGSGSGTDFTLNIHPVEEEDAATYYCQHSRELPPTFGGGTKLEIK
With B5, the EC50 in test [1] is 0.11 nM; in test [3] it was 0.13 nM.

B6: 10-O24-A (antibody, V domains shown)
VH: QAYLQQSGAELVRPGASVKMSCKASGYTFTSYSMHWVKQTPRQGLEWIGAIYPGNDDTSYNQKFKGKATLTVDRSSSTAYMQLSSLTSEDSAVYFCTRDYSNYPFDYWGQGTTLTVSS
VL: DIVLTQSPASLAVFLGQRATISCRASKSVSTSGYSYMHWYQQRPGQPPKLLIYLASNLESGVPARFSGSGSGTDFTLNIHPVEEEDAATYYCQHSRELPPTFGGGTKLEIK
As to B6, the EC50 in test [1] came to 1.07 nM; in test [3] it was 3.07 nM.

B7: 5-P24-A (antibody, V domains shown)
VH: QAYLQQSGAELVRPGASVKMSCKASGYTFTSYSMHWVKQTPRQGLEWIGAIYPGNGDTSYTQKFKGKATLTVDKSSSTAYMQLSSLTSEDSAVYFCARDYSNYPFDYWGQGTTLTVSS
VL: not shown
For B7, the EC50 came out at 0.29 nM in test [1] and 0.12 nM in test [3].

B8: 3-P7-A (antibody, V domains shown)
VH: QAYLQQSGAELVRPGASVKMSCKASGYTFTSYSMHWVKQTPRQGLEWIGAIYPGNDDTSYNQKFKGKATLTVDKSSSTAYMQLSSLTSEDSAVYFCTRDYTNYPFDYWGQGTTLTVSS
VL: DIVLTQSPASLPVSLGQRATISCRASKSVSTSGYSYMHWYQQRPGQPPKLLIYLASNLESGVPARFSASGSGTDFTLNIHPVEEEDAATYYCQHSRELPPTFGGGTKVEIK
Consider B8, for which the half-maximal effective concentration (EC50) turned out to be 38.1 nM in test [1] and 2.93 nM in test [3].

B9: 2-H7-A (antibody, V domains shown)
VH: QAYLQQSGAELVRPGASVKMSCKASGYTFTGYTMHWVKQTPRQGLEWIGAIYPENGDTSYNQKFKGKATLTVDKSSSTAYMQLSSLTSEDSAVYFCARDGYDVLYGMDYWGQGTSVTVSS
VL: DIVLTQSPASLAVSLGQRATISCRASKSVSTSGYSYMHWYQQKPGQPPKLLIYLASNLESGVPARFSGSGSGTDFTLNIHPVEEEDAATYYCQHSRELPWTFGGGTKLDIK
For the molecule B9, the EC50 in test [1] was determined as 0.13 nM; in test [3], 0.08 nM.

B10: 8-H3-A (antibody, V domains shown)
VH: EVQLVESGGGLVQPKGSLKLSCAASGFTFNTYAMHWVRQAPGKGLEWVARIRSKSSNYATYYADSVKDRFTISRDDSQSMLYLQMNNLKTEDTAMYYCVRDHDYYGSSYWFTYWGQGTLVTVSA
VL: DVVMTQTPLSLPVSLGDQASISCRSSQSLVHDNGNTYLHWFLQKPGQSPKLLIYKVSNRFSGVPDRFSGSGSGTDFTLKISRVETEDLGVYFCSQSTHVPWTFGGGTKLEIK
Turning to B10, the EC50 came to 0.27 nM in test [1] and 0.19 nM in test [3].

B11: 8-L17-A (antibody, V domains shown)
VH: EVQLVESGGGLVQPKGSLKLSCAASGFTFNTYAMHWVRQAPGKGLEWVARIRSKSSNYARYYADSVKDRFTISRDDSQSMLYLQMNNLKTEDTAMYYCVRDHDYYGSSYWFAYWGQGTLVTVSA
VL: DVVMTQTPLSLPVSLGDQASISCRSSQSLVHNNGNTYLHWYLQKPGQSPKLLIYKVSNRFSGVPDRFSGSGSGTDFTLKISRVEAEDLGVYFCSQSTHVPWTFGGGTKLEIK
In the case of B11, the EC50 in test [1] and in test [3] was 0.27 nM throughout.

B12: 7-B10-A (antibody, V domains shown)
VH: EVQLVESGGGLVQPKGSLKLSCAASGFTFNTYAMHWVRQAPGKGLEWVARIRSKSSNYARYYADSVKDRFTISRDESQSMLYLQMNNLKTEDTAMYYCVRDHDYYGSSYWFAYWGQGTLVTVSA
VL: DVVMTQTPLSLPVSLGDQASISCSSSQSLVHNNGNTYLHWYLQKPGQSPKLLIYKVSNRFSGVPDRFSGSGSGTDFTLKISRVEAEDLGVYFCSQSTHVPWTFGGGTKLEIK
Consider B12, for which the figures for the EC50 in test [1] and in test [3] were 0.16 nM and 0.08 nM, respectively.

B13: 9-J11-A (antibody, V domains shown)
VH: QVQLQQSGAELVKPGASVKMSCMASGYTFTTYPIEWMKQIHGKSLEWIGNFHPYNDDSKYNEKFKGKATLSVEKSSSTVYLELSRSTSDDSAVYYCARGSYGPYWYFDVWGTGTTVTVSS
VL: DIQMTQSPASLSASVGETVTITCRASGDIHNYLVWYQQKQGKSPQLLVYNAKALADGVPSRFSGSGSGTQYSLKINSLQPDDFGSYYCQHFWSIPYTFGGGTKLEIK
Regarding B13, the EC50 in test [1] and in test [2] was 0.22 nM each time.

B14: 7-N20-A (antibody, V domains shown)
VH: QVQLVETGGGLVRPGNSLKLSCVTSGFTFSNYRMHWLRQPPGKRLEWIGIITDKSDNYGANYAESVKGRFAISRDDSKSSVYLEMKRLREEDTATYFCSRDGYDWYFDLWGTGTTVTVSS
VL: DIVMTQSHKFMSTSVGDRVRITCKASQDVGIVVAWYQQKPGQSPKLLIYWASTRHTGVPDRFTGSGSGTDFTLTISNVQSEDLADYFCQQYSSYPTFGGGTKLEIK
Take B14: the EC50 in test [1] is 0.24 nM.

B15: 4-K16-A (antibody, V domains shown)
VH: QIQLVQSGPELKKPGETVKISCKASGYTFTTYGMSWVKQAPGKGLKWMGWMSTYSGVPTYADDFKGRFAFSLETSASTAYLQINNLKNEDTATYFCASGDVGYWGQGTTLTVSS
VL: DIVMTQSQKFMSTSVGDRVSVTCKASQNVGTNVAWYQQKPGQSPKALIYSASYRYSGVPDRFTGSGSGTDFTLTISTVQSEDLAEYFCQQYNIYPSTFGGGTKLEIK
As to B15, the 50% effective concentration (EC50) in test [1] is 1.04 nM; in test [2] it was 1.01 nM.

B16: 8-H5-A (antibody, V domains shown)
VH: QVTLKESGPGILQSSQTLSLTCSLSGFSLSTSGMGVSWVRQPSGKGLEWLAHIYWDDDKRYTPSLKSRLTISTDSSRKQVFLKITSVDTADTATYYCARRDLHDYDGWFAYWGQGTLVTVSA
VL: DIVMTQSQKFMSTAVGDRVSVTCKASQNVGTNVAWYQQKPGQSPKALIYSASFRYSGVPDRFSGSGSGTDFTLTISNVQSEDLAEYFCQQYNSYPLTFGSGTKLEIK
With B16, the EC50 in test [1] is 0.08 nM; in test [3], 0.13 nM.

B17: 3-E2-A (antibody, V domains shown)
VH: EVQLQQSGPELVKPGASVKISCKASGYTFTDYYMNWVKQSHGKSLEWIGDINPNNGGTSYTQKFKGKATLTVDKSSSKAYMELRSLTSEDSAVYYCARRGDGHYGGFTYWGQGTLVTVSA
VL: not shown
Take B17: the EC50 in test [1] was 0.87 nM; in test [3] it was 0.8 nM.

B18: 10-L24-A (antibody, V domains shown)
VH: EVQLQQSGPELVKPGASVKISCKASGYTFTDYYMNWVKQSHGKSLEWIGDINSNNGGTTYDQKFKGKATLTVDRSSSTAYMELRSLTSEDSAVYYCARRGDGHFGGFTYWGQGTLVTVSA
VL: not shown
For B18, the EC50 in test [1] was determined as 0.92 nM; in test [3] it was 0.31 nM.

B19: 2-O12-A (antibody, V domains shown)
VH: EVQLQQSGPELVKPGASVKISCKASGYTFTDYYMNWVKQSHGKSLEWIGDINSNNGGTTYDQKFKGKATLTVDRSSSTAYMELRSLTSEDSAVYYCARRGDGHFGGFTYWGQGTLVTVSA
VL: not shown
On to B19, for which the 50% effective concentration (EC50) in test [1] was found to be 0.84 nM; in test [3], 0.22 nM.

B20: 10-O3-A (antibody, V domains shown)
VH: QVQLKESGPGLVAPSQSLSITCTVSGFSLTNYAVHWVRQSPGKGLEWLGVIWSDGRTDYNAAFISRLSISKDNSKSQVFFKMNSLQADDTAIYYCVRIEGGSYVGWYFDVWGAGTTVTVSS
VL: DIQMTQSPSSLSASLGGTVTITCKASQDINKFIAWYQHKPGKGPRLLIHYTSTLQPGIPSRFSGSGSGRDYSFSISNLEPEDIATYYCLQYDNLLTFGAGTKLELK
B20: the figures for the EC50 in test [1] and in test [2] were 3.47 nM and 3.37 nM, respectively.

B21: 10-I12-A (antibody, V domains shown)
VH: RVQLQQSGPELVRPGTSVKISCKASGYTFTDSYINWVTQRPGQGLDWIGWIFPGNDNTYYNEKFEGKATLTLDKSSSTAYMLLSSLTSEDSAVYFCARSGGLRLGFAYWGQGTLVTVSA
VL: NIVLTQSPASLAVSRGQRATISCRASESVDSYGHSFIHWYQQKPGQPPKILIYLASKLESGVPARFSGSGSRTDFTLTIDPVEADDAATYYCQQNNEDPWTFGGGTKLEIK
B21: the EC50 in test [1] and in test [2] was 64.4 nM throughout.
